Kd data for two substances are collected here from article PMC10746202.

The target of assay [1] is lactoferrin (Homo sapiens) (UniProt P02788). Particulars: cited from earlier work.
Assay [2] concerns the target recombinant WU2 (r)PspA possessing only αHD and PRD (Streptococcus pneumoniae serotype 3 strain WU2). Put plainly: SPR; Biacore T200; kinetic study, LF at several concentrations in PBS-P+ injected over rPspA amine-coupled to a CM5 chip; 25°C; fitted to a two-state binding curve.

mGAPDH (from UniProt P04406): the Kd – broadly, the free concentration of one partner at which half of the binding sites on the other are occupied at equilibrium, for simple one-to-one binding – in assay [1] was 43.8 nM.

For the substance “recombinant lactoferrin (from UniProt P02788 20-710) (natural protein)”, the Kd in assay [2] is 3.89 nM.
